Measured values published in patent US20120114755A1, “METHODS AND MATERIALS FOR TISSUE REPAIR” (MAYO FOUNDATION FOR MEDICAL EDUCATION AND RESEARCH, priority 2009, published 2012).
Ends that are not written are not given here.

B1: GDF-5: Recombinant human GDF-5 (MBL, Woburn, Mass.) (protein, UniProt P43026 382-501, looked up)
Growth/differentiation factor …: APLATRQGKRPSKNLKARCSRKALHVNFKDMGWDDWIIAPLEYEAFHCEGLCEFPLRSHLEPTNHAVIQTLMNSMDPESTPPTCCVPTRLSPISILFIDSANNVVYKQYEDMVVESCGCR

What was measured:
FDP tendons = assay: In vitro tissue culture tendon healing model, gel patch with BMSC and/or Substance P: biomechanical testing; type: cell-based, dogs; conditions: zone III tendon groups, Substance P 10^−9, 2 weeks and 4 weeks
Description: Mixed-breed dogs being euthanized for other IACUC approved studies were used to harvest bone marrow from which bone marrow stromal cells (BMSCs) were cultured. The FDP tendons were harvested from dogs also being euthanized for other IACUC approved studies and these tendons were transected at similar levels, repaired with a single suture and incubated in tissue culture medium. Six repair groups was studied: (1) tendons ends opposed with two single loop sutures of 6/0 nylon (Ethicon, Somerville N.J.); (2) tendons repaired as in group 1 with the interposition of a collagen gel scaffold to the repair site (positive control group); (3) tendons repaired as in group 1 with the interposition of a BMSC-seeded collagen gel scaffold to the repair site; (4) tendons repaired as in group 1, with the interposition of a BMSC-seeded collagen gel scaffold to the repair site and addition of Substance P; (5) tendons repaired as in group 1, with the interposition of a BMSC-seeded collagen gel scaffold to the repair site and addition of GDF-5; and (6) tendons repaired as in group 1, with the interposition of a BMSC-seeded collagen gel scaffold to the repair site and addition of SP and GDF-5. […]
Confluent plates of BMSC were washed twice with sterile PBS and then trypsinized. The cells were counted with a hemocytometer and centrifuged to remove the media, forming a cell pellet with a known number of cells. […]

BMSCs [1] = assay: Quantitative RT-PCR of BMSCs cultured with GDF-5; type: cell-based, canine
Description: (§1) Immediately after euthanasia, 8.0 mL of bone marrow was aspirated from each tibia using a 15 mL syringe containing 2.0 mL of heparin solution. Heparin was removed and the bone marrow cells from one dog were divided into three 100-mm dishes in 10 mL of standard medium, which consists of minimal essential medium (MEM) with Earle's salts (Gibco, Grand Island, N.Y.), 10% fetal calf serum and 1% antibiotics (Antibiotic-Antimycotic, Gibco). The bone marrow cells were incubated at 37° C. with 5% CO2 and 95% air at 100% humidity. After 3 days, the medium containing floating cells was removed and new medium was added to the remaining adherent cells. These adherent cells were considered to be BMSCs. The medium was changed every 3 days. After the BMSCs formed colonies, they were treated with EDTA-trypsin to produce a cell suspension and centrifuged at 1500 rpm for 5 minutes to remove the EDTA-trypsin solution. The concentrated cell suspension was gathered in one tube and seeded in new dishes. Recombinant human GDF-5 (MBL, Woburn, Mass.) was added to the culture medium at a concentration of 100 ng/mL and culture continued for and additional 10 days.
Total RNA was extracted from culture cells using RNeasy Micro kit (Qiagen, Valencia, Calif.), according to the manufacturer's recommendations. The RNA concentration was determined using a NanoDrop (Thermo scientific, Waltham, Mass.). RNA was reverse transcribed into single-stranded cDNA with an anchored-oligo(dT) primer using Transcriptor First Strand cDNA Synthesis Kit (Roche). The reverse transcriptase was inactivated by heating to 85° C. for 5 minutes. The expression of tenomodulin (a marker of tenocyte differentiation), collagen type I and collagen type III was quantified with LightCycler 480 SYBR Green I Master kit (Roche) in a LightCycler 480 instrument (Roche). HPRT served as the reference gene. Five samples were measured in each group.

BMSCs [2] = assay: MTT cell proliferation assay of BMSCs with rhGDF-5; type: cell-based, dogs; conditions: day 10 of cell culture, 100 ng/mL rhGDF-5
Description: as §1
Quantification of cell proliferation and viability was measured using Cell Proliferation Kit I (Roche, Basel, Switzerland). […] The absorbance was measured using Spectra Max Plus (Molecular Devises, Sunnyvale, Calif.). […]

Molecule	maximum force compared with cell only control (FDP tendons)	collagen type I mRNA expression, treated vs untreated cells (BMSCs [1]; 100 ng/mL)	collagen type III mRNA expression, treated vs untreated cells (BMSCs [1]; 100 ng/mL)	expression of tenomodulin mRNA compared with untreated cells (BMSCs [1]; day 10, 100 ng/mL)	proliferation of BMSCs (MTT) compared with BMSCs without GDF5 stimulation (BMSCs [2])
Substance P: neuropeptide, substance P (Sigma) (RPKPQQFFGLM-NH2; ends and bridges not checked; UniProt P20366 58-68, looked up)	significantly higher	–	–	–	–
B1	–	no significant difference	no significant difference	increased	significantly increased
